Assay in all cases: Biacore (SPR)
For orientation: In SPR one partner is held on a chip, and binding of the other changes the refractive index at the surface.

The target of assay [1] is T1, human Jag2-DSL-EGF1-4 (R2-E388) (UniProt Q9Y219 24-388).
T1 chain: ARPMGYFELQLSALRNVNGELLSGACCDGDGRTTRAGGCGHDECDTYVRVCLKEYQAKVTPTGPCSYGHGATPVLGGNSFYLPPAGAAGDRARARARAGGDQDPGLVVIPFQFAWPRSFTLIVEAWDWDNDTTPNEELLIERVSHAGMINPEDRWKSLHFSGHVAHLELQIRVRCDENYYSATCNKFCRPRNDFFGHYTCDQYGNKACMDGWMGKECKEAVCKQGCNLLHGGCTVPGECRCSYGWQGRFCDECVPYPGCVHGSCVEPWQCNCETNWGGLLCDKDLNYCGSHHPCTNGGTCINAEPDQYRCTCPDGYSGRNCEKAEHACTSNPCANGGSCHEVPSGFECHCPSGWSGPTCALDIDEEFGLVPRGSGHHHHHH

For a further assay, the target named is human Jag1-DSL-EGF1-4 (UniProt P78504 34-377).
The target in assay [2] is T2, murine Jag2-DSL-EGF1-4 (M27-E388) (UniProt Q9QYE5 27-388).
T2 chain: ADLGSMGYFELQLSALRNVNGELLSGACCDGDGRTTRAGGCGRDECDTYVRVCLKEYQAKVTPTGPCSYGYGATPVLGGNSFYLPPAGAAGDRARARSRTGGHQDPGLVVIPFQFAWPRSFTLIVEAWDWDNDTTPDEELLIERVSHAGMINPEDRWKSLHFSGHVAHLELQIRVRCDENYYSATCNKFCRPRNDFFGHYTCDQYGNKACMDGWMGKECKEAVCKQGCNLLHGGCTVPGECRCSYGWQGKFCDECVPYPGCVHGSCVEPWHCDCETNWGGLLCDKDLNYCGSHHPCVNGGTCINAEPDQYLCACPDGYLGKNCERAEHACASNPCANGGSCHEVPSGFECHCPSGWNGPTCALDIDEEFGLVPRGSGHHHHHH

Substitutions are numbered along the chain they refer to.

B1: D-1 (antibody, V domains shown)
VH: EVQLVESGGGLVQPGGSLRLSCAASGFTFTSNYMSWVRQAPGKGLEWVSTIWYQSGTTDYADSVKGRFTISADTSKNTAYLQMNSLRAEDTAVYYCARDSPWPSKGFGMDVWGQGTLVTVSS
VL: DIQMTQSPSSLSASVGDRVTITCRASQSISSYLAWYQQKPGKAPKLLIYGASSRASGVPSRFSGSGSGTDFTLTISSLQPEDFATYYCQQYLSSPITFGQGTKVEIK
In the case of B1, the figures for the Kd (in assay [1]; with human Jag1-DSL-EGF1-4; in assay [2]) were 4.6 nM, 0.52 nM and 14 nM, respectively.

B2: D (antibody, V domains shown)
VH: B1 VH with D99S, P103S, S104G, K105E
VL: B1 VL with L92Y, I96L
For the molecule B2, the Kd in the assay with human Jag1-DSL-EGF1-4 stood at 13 nM.

B3: D-2 (antibody, V domains shown)
VH: B1 VH with T28S, F29V, T30K, S31P, N32M, S35T, D99S, P103S, S104G, K105E
VL: B1 VL with L92S, I96L
Take B3: in the assay with human Jag1-DSL-EGF1-4, the dissociation constant (Kd) was found to be 1.1 nM.

B4: C-1 (antibody, V domains shown)
VH: EVQLVESGGGLVQPGGSLRLSCAASGFTFTNSDIHWVRQAPGKGLEWVGGITPADGYTDYADSVKGRFTISADTSKNTAYLQMNSLRAEDTAVYYCARSYWSSSPGSAFDYWGQGTLVTVSS
VL: DIQMTQSPSSLSASVGDRVTITCRASQDVSTAVAWYQQKPGKAPKLLIYSASFLYSGVPSRFSGSGSGTDFTLTISSLQPEDFATYYCQQSYISPSTFGQGTKVEIK
Consider B4, for which the Kd in assay [1] worked out at 0.12 nM; with human Jag1-DSL-EGF1-4, 0.31 nM; in assay [2] it was 0.73 nM.

B5: A (antibody, V domains shown)
VH: EVQLVESGGGLVQPGGSLRLSCAASGFTFSNYGIHWVRQAPGKGLEWVGWITPDGGYTDYADSVKGRFTISADTSKNTAYLQMNSLRAEDTAVYYCARAGSWFAYWGQGTLVTVSS
VL: B4 VL with I93T, S94T, S96P
Turning to B5, the affinity in the assay with human Jag1-DSL-EGF1-4, expressed as Kd, was 94 nM.

B6: C (antibody, V domains shown)
VH: B4 VH with S102N, S103N, A108G
VL: B4 VL with I93T, S94T, S96P
With B6, in the assay with human Jag1-DSL-EGF1-4, binding was put at a Kd of 2.3 nM.

B7: B-2 (antibody, V domains shown)
VH: EVQLVESGGGLVQPGGSLRLSCAASGFTFTSYDIHWVRQAPGKGLEWVGGISPADGDTDYANSVKGRFTISADTSKNTAYLQMNSLRAEDTAVYYCARNDYDVRSVGSGMDYWGQGTLVTVSS
VL: B4 VL with Y92W, I93T, S94A, S96P
In turn, B7 had a Kd in assay [2] of 0.0025 nM.

B8: B-3 (antibody, V domains shown)
VH: B7 VH with S105F
VL: B4 VL with Y92F, I93T, S94A, S96P
Turning to B8, the Kd in assay [2] was found to be 0.3 nM.

B9: A-2 (antibody, V domains shown)
VH: B5 VH with P53G, D54N, T58S
VL: B4 VL with I93T, S94T, S96P
For the molecule B9, the dissociation constant Kd in the assay with human Jag1-DSL-EGF1-4 came out at 0.3 nM.

B10: B-1 (antibody, V domains shown)
VH: B7 VH with S105T
VL: B4 VL with I93T, P95A, S96P
B10 yielded a dissociation constant Kd in assay [2] of 1.1 nM.

B11: B (antibody, V domains shown)
VH: B7 VH
VL: B4 VL with I93T, S94T, S96P
Take B11: the Kd in assay [1] and in assay [2] was 1 nM each time.

A word on the Kd: it is the equilibrium constant for the complex coming apart. The low end stands for tighter binding, the high end for weaker binding.

The values above are taken from patent US20150232568A1 (published 2015).
